Laboratory results as given in publication PMC5680790 (mAbs, 2017).

Legend:
EGFR-ECD [1] = target: T1, EGFR-ECD (UniProt P00533 25-645); assay: BLI
EGFR-ECD [2] = target: T1, EGFR-ECD; assay: BLI; remark: listed apart in the source

B1: Anti-EGFR mAb (antibody, V domains shown)
VH: EVQLVESGGGLVQPGGSLRLSCAASGFSLTNRGVHWVRQAPGKGLEWVGVIWSGGNTDYNTPFTSRFTISRDNSKNTLYLQMNSLRAEDTAVYYCARALTYYDYEFAYWGQGTLVTVSS
VL: not shown
Kd (EGFR-ECD [1]): ~1 nM
koff (EGFR-ECD [2]): 0.00034 s⁻¹
kon (EGFR-ECD [2]): 350000 M⁻¹ s⁻¹
